B1: catalase (CAT) (natural protein, human (endogenous in HeLa), UniProt P04040 1-527, looked up)
chain: MADSRDPASDQMQHWKEQRAAQKADVLTTGAGNPVGDKLNVITVGPRGPLLVQDVVFTDEMAHFDRERIPERVVHAKGAGAFGYFEVTHDITKYSKAKVFEHIGKKTPIAVRFSTVAGESGSADTVRDPRGFAVKFYTEDGNWDLVGNNTPIFFIRDPILFPSFIHSQKRNPQTHLKDPDMVWDFWSLRPESLHQVSFLFSDRGIPDGHRHMNGYGSHTFKLVNANGEAVYCKFHYKTDQGIKNLSVEDAARLSQEDPDYGIRDLFNAIATGKYPSWTFYIQVMTFNQAETFPFNPFDLTKVWPHKDYPLIPVGKLVLNRNPVNYFAEVEQIAFDPSNMPPGIEASPDKMLQGRLFAYPDTHRHRLGPNYLHIPVNCPYRARVANYQRDGPMCMQDNQGGAPNYYPNSFGAPEQQPSALEHSIQYSGEVRRFNTANDDNVTQVRAFYVNVLNEEQRKRLCENIAGHLKDAQIFIQKKAVKNFTEVHPDYGSHIQALLDKYNAEKPKNAIHTFVQSGSHLAAREKANL

Experiments:
[1] = target: Cu/Zn superoxide dismutase (SOD1) (human (endogenous in HeLa), UniProt P00441 1-154); test: co-IP
Cu/Zn superoxide dismutase (SOD1), sequence (P00441 whole entry): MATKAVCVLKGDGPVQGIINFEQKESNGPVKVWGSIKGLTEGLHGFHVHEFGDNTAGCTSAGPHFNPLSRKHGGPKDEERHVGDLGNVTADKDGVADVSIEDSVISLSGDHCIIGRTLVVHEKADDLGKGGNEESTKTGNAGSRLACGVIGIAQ

[2] = target: B1; test: co-IP

Row | co-precipitated amount after H2O2 treatment, percent of control [1] | co-precipitated amount after H2O2 treatment, percent of that without H2O2 [2] | Binder | also measured
1 | 170% |  | B1 | 
2 |  | 190% | POLD1 (a DNA polymerase subunit) (natural protein, human (endogenous in HeLa), UniProt P28340 1-1107, looked up) MDGKRRPGPGPGVPPKRARGGLWDDDDAPRPSQFEEDLALMEEMEAEHRLQEQEEEELQSVLEGVADGQVPPSAIDPRWLRPTPPALDPQTEPLIFQQLEIDHYVGPAQPVPGGPPPSRGSVPVLRAFGVTDEGFSVCCHIHGFAPYFYTPAPPGFGPEHMGDLQRELNLAISRDSRGGRELTGPAVLAVELCSRESMFGYHGHGPSPFLRITVALPRLVAPARRLLEQGIRVAGLGTPSFAPYEANVDFEIRFMVDTDIVGCNWLELPAGKYALRLKEKATQCQLEADVLWSDVVSHPPEGPWQRIAPLRVLSFDIECAGRKGIFPEPERDPVIQICSLGLRWGEPEPFLRLALTLRPCAPILGAKVQSYEKEEDLLQAWSTFIRIMDPDVITGYNIQNFDLPYLISRAQTLKVQTFPFLGRVAGLCSNIRDSSFQSKQTGRRDTKVVSMVGRVQMDMLQVLLREYKLRSYTLNAVSFHFLGEQKEDVQHSIITDLQNGNDQTRRRLAVYCLKDAYLPLRLLERLMVLVNAVEMARVTGVPLSYLLSRGQQVKVVSQLLRQAMHEGLLMPVVKSEGGEDYTGATVIEPLKGYYDVPIATLDFSSLYPSIMMAHNLCYTTLLRPGTAQKLGLTEDQFIRTPTGDEFVKTSVRKGLLPQILENLLSARKRAKAELAKETDPLRRQVLDGRQLALKVSANSVYGFTGAQVGKLPCLEISQSVTGFGRQMIEKTKQLVESKYTVENGYSTSAKVVYGDTDSVMCRFGVSSVAEAMALGREAADWVSGHFPSPIRLEFEKVYFPYLLISKKRYAGLLFSSRPDAHDRMDCKGLEAVRRDNCPLVANLVTASLRRLLIDRDPEGAVAHAQDVISDLLCNRIDISQLVITKELTRAASDYAGKQAHVELAERMRKRDPGSAPSLGDRVPYVIISAAKGVAAYMKSEDPLFVLEHSLPIDTQYYLEQQLAKPLLRIFEPILGEGRAEAVLLRGDHTRCKTVLTGKVGGLLAFAKRRNCCIGCRTVLSHQGAVCEFCQPRESELYQKEVSHLNALEERFSRLWTQCQRCQGSLHEDVICTSRDCPIFYMRKKVRKDLEDQEQLLRRFGPPGPEAW | 
3 |  | 175% | PRIM2 (a DNA primase subunit) (natural protein, human (endogenous in HeLa), UniProt P49643 1-509, looked up) MEFSGRKWRKLRLAGDQRNASYPHCLQFYLQPPSENISLIEFENLAIDRVKLLKSVENLGVSYVKGTEQYQSKLESELRKLKFSYRENLEDEYEPRRRDHISHFILRLAYCQSEELRRWFIQQEMDLLRFRFSILPKDKIQDFLKDSQLQFEAISDEEKTLREQEIVASSPSLSGLKLGFESIYKIPFADALDLFRGRKVYLEDGFAYVPLKDIVAIILNEFRAKLSKALALTARSLPAVQSDERLQPLLNHLSHSYTGQDYSTQGNVGKISLDQIDLLSTKSFPPCMRQLHKALRENHHLRHGGRMQYGLFLKGIGLTLEQALQFWKQEFIKGKMDPDKFDKGYSYNIRHSFGKEGKRTDYTPFSCLKIILSNPPSQGDYHGCPFRHSDPELLKQKLQSYKISPGGISQILDLVKGTHYQVACQKYFEMIHNVDDCGFSLNHPNQFFCESQRILNGGKDIKKEPIQPETPQPKPSVQKTKDASSALASLNSSLEMDMEGLEDYFSEDS | co-precipitated amount after H2O2 treatment, percent of that without H2O2 [1]: 130%
4 | 180% |  | glyceraldehyde-3-phosphate dehydrogenase (GAPDH) (natural protein) not shown | 
5 |  |  | peroxiredoxin 2 (PRDX2) (natural protein, human (endogenous in HeLa), UniProt P32119 1-198, looked up) MASGNARIGKPAPDFKATAVVDGAFKEVKLSDYKGKYVVLFFYPLDFTFVCPTEIIAFSNRAEDFRKLGCEVLGVSVDSQFTHLAWINTPRKEGGLGPLNIPLLADVTRRLSEDYGVLKTDEGIAYRGLFIIDGKGVLRQITVNDLPVGRSVDEALRLVQAFQYTDEHGEVCPAGWKPGSDTIKPNVDDSKEYFSKHN | co-precipitated amount after H2O2 treatment, percent of control [2]: 139%

From paper doi:10.1101/2025.08.11.669663 (bioRxiv, 2025)
